{"source": "a protein production outcome set (Wang et al. 2014)", "data": [{"assay": "label from the status in PepcDB records", "values": [{"sequence": "MTKNTRFSPEVRQRAVRMVLESQGEYDSQWATICSIAPKIGCTPETLRVWVRQHERDTGGGDGGLTTAERQRLKEPERENRELRRSNDILRQASAYFAKAEFDRLWKK", "protein production": "failed"}, {"sequence": "MTKQSKTQIRICFVGDSFVNGTGDPECLGWTGRVCVNANKKGYDVTYYNLGIRRDTSSDIAKRWLQEVSLRLHKEYNSLVVFSFGLNDTTLENGKPRVSIAETIKNTREILTQAKKLYPVLMISPAPYIEQQDPGRRRRTIDLSQQLALVCQDLDVPYLDVFPLLEKPSVWLHEAKANDGVHPQAGGYTEFARIVENWDAWLNWFR", "protein production": "not failed"}, {"sequence": "MTKRHVSLPADAKDVRRAFVSGVDERLSAAETPDELATAVTGTLADLRGERDAYEAWRDGDDVRPAAAARLATLDPRNASLESEYYAEKDEAAFARSKPLQWLWRQFDTTPLADNVDVALPFRRMLAGHLFAGVGEDVRLFKGITMTYGHNIELGDNAVVHDGVHLDDRGELVVGARASVSNGAHLYTHDHDVVDQTDVTNYRTEIGADARVTQGALVRAGVRVGENALVGSRSVVQGDVPAHHIAVGSPAESVRVKPGWEAVAAPLDAGLEHHHHHH", "protein production": "not failed"}, {"sequence": "MTKSPARLISFISIAIAINLVGANLALFLRLPIYLDTIGTLLIAVILGPWYAASTAFLSALINWMTTDIFSLYYSPVAIVVAIITGILIKRNCKPSSLLWKSLIISLPGTIIASVITVILFKGITSSGSSIIAQFLHGIGLDMTSSLILVQVGTDYMDRLISLILVFSTITLLKKHSPNLINQRF", "protein production": "failed"}, {"sequence": "MTKTLRTPEHVYLCQRLRQARLDAGLTQADLAERLDKPQSFVAKVETRERRLDVIEFAKWMAACEGLDVVSEIVATIAEGRAQA", "protein production": "not failed"}, {"sequence": "MTKVIVVNGPNLGRLGVRQPDVYGRQDLDTLRKLCAEWGKDLGLEVEVRQTDDEAEMVRWMHQAADEKTPVVMNPAAFTHYSYALADAAHMVIDENLPLMEVHISNPSARDEFRKRSVISPVATGTITGMGFYGYKLALDAVAHLLSE", "protein production": "not failed"}, {"sequence": "MTKVLFVKANNRPAEQAVSVKLYEAFLASYKEAHPNDTVVELDLYKEELPYVGVDMINGTFKAGKGFDLTEEEAKAVAVADKYLNQFLEADKVVFGFPLWNLTIPAVLHTYIDYLNRAGKTFKYTPEGPVGLIGDKKIALLNARGGVYSEGPAAEVEMAVKYVASMMGFFGATNMETVVIEGHNQFPDKAEEIITAGLEEAAKVANKF", "protein production": "not failed"}, {"sequence": "MTLAACMQEADQLQHWREKCWRPFFRVDEEILNIHNEQLGINEDHLHGAQSIHVASNIRARKVFEFPYLQTSMKPEDAGVDAILSKFNIMIYSYKDAAYPFRMVPPIVYAHLAILRVNAGDLTSSDTWRLYM", "protein production": "failed"}, {"sequence": "MTLDANSAPVRDMASAHFSPGEDCRRKIRDLCRQARISVDICVFTISDDQLSDEIRACHQRGVAVRVISDSEKQFDVGSDIAALREAGVPVRIDDTPFHMHHKFAVFDGRTLLNGSFNWTRSATTGNEENLLVIDHPQLVASYLKEFNELWSRYAPRLEHHHHHH", "protein production": "failed"}, {"sequence": "MTLEKKEYGAPGFWPGSMIGRVHAFETPAPLTRAQLDRLRDEFFETRTEGHLEIWTAIRAASHAQEAGDDELAYAIITAVGILPAEVGPAGEGLGERIPFAEQPLDRLLGMICGCCFPAFTRYRTLERVYDQRGFLYETPKECIATPSNVLPDESTEASAR", "protein production": "not failed"}, {"sequence": "MTLETISSLLPMSAAGLAAVVSALAALGLGLGLWCARHRLRLLTAALEASGCGLITIEGGTRVFQANRQAARLLGRPEGLARDTQARKLFGGTLTAAVQGPGDGQPVRGTAHRPDHGWFPATLQSLGPCGGFARQRRLWLLRDLSDAQELERLRETEERFNASQRFGRIGVWDWNTETNEVFWSEEVFPMFGFTPAEITPTYDLFIAMVHPDDFVALTDSERACLSGTTLHDQEYRVIWRDGSVHWIRETADVLRESDGTPRRMVGVIREVTEEKEAQRQALRIAMLDPLTGLPNRATFLERLEADLGQVDETGVAVPLALAFIDLDDFKPINDTYGHLMGDRVLMTIAKRLSEAVRPQDMVARVGGDEFVALLRGCRDGARARTVAARLLDAVTAPVSIDTVIHRVRASIGISLYPSLVSTGDDLIATADQAMYVAKRAGGDPIRLHGE", "protein production": "failed"}, {"sequence": "MTLHLPGADGTLRAYEPRTEPLPTLRATSGSAFSSRTVFSAAHVVADPYADTTPDGPAAVDWDATLAFRRHLWSHGLGVAEAMDTAQRGMGLDWPTAAELIRRSAAEARATGGRIACGVGTDQLTATAATLADVRSAYEEQLAVVEESGAQAILMASRALAATAKGPDDYLEVYGHLLRQAAEPVILHWLGPMFDPALEGYWGSSDLDAATDTFLEVIAAHPDKVDGIKVSLLDAQREIDLRRRLPRGVRCYTGDDFNYPELIAGDEQGFSHALLGIFDPLGPLAAEAVRVLDTGDTDGFRALLDPTVELSRHLFRAPTRYYKTGVVFLAWLAGHQSHFTMVGGLQSARSLPHLARAYELADGLGLFPDPKPAEERMRNLLALYGVNA", "protein production": "failed"}, {"sequence": "MTLKLKDKNTMLNSEKMVASIEKQDLHHADKYLKKALNEDPAEVLVELAEYLESIGFLPQAQEIYEKVRFDFPEVNVNLAQIAAEDGNIEEAFLYLDAIPEESEDYLSALIVKADLYQMEGLTDVARDKLLEASQLSDDSLIIFGLAEMEFELGNFEQAIQYYAKLDNRDLLATTGVSTYERIGKSYASLGKFEAAREFLEKAIEIEYNDTIAFELATLLYDQEEYQKANFYFKQIETMSSDFEGYEYNYALSLHAEHRTEEALRMTQQGISKNAFDVQLLLLASQLSYELHDTQSAESYLKQALPLAEDNDEIVLRLSALYLEEERFDDLVALADYEVDSVLARWNIARAYQALDDEEEAFQIYQDLSKDLADNPEFLQDYAYILREFGYRDQARVTAEKYLALVPDDVNMQTFLEDY", "protein production": "failed"}, {"sequence": "MTLLDSMIVMIYLLFIGIAAWLFRRFSTSSNDFLQGGGTMMWWMAGATAFMTQFSAWTFTGAAAKAYEDGISVMFIFWGNALGFFVAAAFFARRYRRLRVETAMEVIRVRFGHTSEQLFTWLSFPLTLIACAIWMNGLASFFSAVFAIEMSTTILAMGVIVTLIAVSGGAWTVSVTNVIQLVLLIAITLVIGYTALQHFDSPSEVFAYTTPIYGEQIRMPSLFVMWAIAMLLQQTMSNNHTLSCYRFLTTANDKDATKAAFVAGVLFVFAPVLWFMPAWFVAAQNIDLLAIYPALEQSANNAAYLYYIQHYMPQGLLGLVMVALVAATIAPLSSAHNRNAGIVVKSLYQVWFNPNATSRQQLMVGKIATIVSGILATVTALLLASVESYSLFDMMIVFAAFIQMPINIPSLLALVSLKTPNWSGWATVMVGCVVSLFMMFIFDVQWISSSPLTPRESKDLSVVATLAVHLLVTGGFFLSTRVFYAKESPSIQQSRTALSIQLATPISDEELSPINHKQGLYVGSITALAGMLLILAGVVLAGSSQSIFVAIGCIVLLFSLFLLQPTLHSKRAWQKQKTK", "protein production": "failed"}, {"sequence": "MTLLFRYLFRNNLQVILPTLAVGTGLYLLSDLFDRLDDILEAGVPGNVAIWYFVAKTPLIISQILPAVFLLAALIQLCLMSRDRELMALQAGGVSFGAIARFFVVYGLLWAVLQLGFSQVLGVAGERESARIWQEQVRGRTPGTRDLTNVWFTDDNHVIHLEVVTPALRKGQGFAAYGLAADGIHIDTVIRAKAFTGTAGTWKLQDVEVFSTRDFGHAKLPEMSIAIGQDPQDFAVIDPGADPQRLPLWQLGDAVEKLRTAGSNVEGLRTAWHMKLAYAASLVVMGLLAVAMVTWRDNIYLATGLALVFTFLFYTMFTIGSTLGQKGIVSPPIAAWGADILVGVVASARLLLVLRPRSLR", "protein production": "failed"}, {"sequence": "MTLLNDIQVWTTACAYDHLIPGRGVGVLLDDGSQVALFRLDDGSVHAVGNVDPFSGAAVMSRGIVGDRGGRAMVQSPILKQAFALDDGSCLDDPRVSVPVYPARVTPEGRIQVARVAV", "protein production": "failed"}, {"sequence": "MTLNIYTEEWAPISFSVDGKPDGLAVQVVQEIQKRIDNQDPIKVVPWARGWKIITEQPNTVLFTMTRTAERERMFSLIGPVAVGTTNFYALKNSNLEHHHHHH", "protein production": "failed"}, {"sequence": "MTLPAPWRVRHLPLLLLLLAAPLLALANSDPLPSWKDGPSKQGILAFVQAVTTQGSPDYVKAAERIAVFDNDGTLWSEQPAYFEVLFAFDEIKRLAPQHPEWKTRQPFQAVLEGDHQALAASGMHGLLQIIGATHTGISSEAFIDNARRWLAEARHPKTGRPFNQMIYQPMLEMLDYLRSQDFKTYIVSGGDTAFMRAFAESAYGIPPEQVIGSNFVTQWQFQDGQPSILRTAKLAHNDDGPGKPESIDGIIGRRPLLAFGNSDGDLQMLQWTAAGSGKRFMALVHHTDAAREWAYDRKSQVGRLDQALDQAQQHGWTLVDMAAEWRRIYPFEPLAPEQAQ", "protein production": "failed"}, {"sequence": "MTLPIPSSPPRIKINLPCFQYVGTEMSVDIITSIWFMTLTEFATFMPKRDMCPKPASIPPAAPTVENTVPTTIPQINRRSSITSSSSTTVDNFVIKIYQVYRRMQTLTLEISTTKRSVLNKLKRASLTFQQFKNLLYLCLLEYYKNTKDVKPFLSVSFLEKFVKGKENLPFENEKIKSYREKLKELWEKEIGSDTVKALARQVSKEVKSVLEKWKKGERAFLPRPRKLKKVHKFTVPTNPNMLVDKRKLKRRRENSIVVRLGISFGAVKVKIPQGINIRDVKITWYEDTEVIFRISYEVPKAQKELLKEKWLSIDLGVRNLVSCISNDENLRSFIVDGNPLKSFNQWVNKLSAKLRSEGKERLERKLWRYRKKRIKGFFHQVANLIVRVCLERGIGRVIIPNSLNEEYQKDSEKGARFNQEFRFIPLGELVKMIEYKCELCGIEVVKEDESWTSKVSSVSGNIEVLKEEIPEGEVKKLKFEGRRIKRGLFRDRRLKKVFNADLNGALNLAIKALGKKVREEFLSLRNWLDKLSRPVKVNLFRYPASLPVLWEIAGSKSCSPKGDSEGHFAGSVSDLITFAHF", "protein production": "failed"}, {"sequence": "MTLSAIQPNDMALYHYDSCPFCAKTRHAINELDLNIELRNIQKNHQHRIELQQGGNKTQVPCLRIGQSNGKAQWLYESGDIINFLRNRK", "protein production": "failed"}, {"sequence": "MTLSKRLALLGAQSAITLAKPRGLGSSLGLLDRRPFPYRQFSELTKANGRRAFLVDTLALVRSLEAQGVPSKQAEAITSAITEVLNDSLENVSESFVSKAEMQKIEMIQDSNLSKFKSEVKSSQVTSTLVV", "protein production": "failed"}, {"sequence": "MTLTLGEFIKILEATGYPVAYSHFTATPGNPVPAPPYICFLVDGSANLMADNKVYHKINDVNIELYTTKKDLVAEAKLEQVLDDHEIPYGSYGTFIESENMYQKFYETRLI", "protein production": "failed"}, {"sequence": "MTLTLLLLIFILISFISALTIIFITVKKGIFFNRLYLQSIIVCILFFTNWILYLSTFYALLPEKISEFLFLPIWFFLCILSFITFWREWRNNRVFSICIGFLSFISFLFVLFLLVLSGM", "protein production": "failed"}, {"sequence": "MTLVTALIVLLVVLGVFFTLVAAVGVLRLPDVYTRSHAATKADTLGAGFAIAAVGLYFGTAGELVRAGLLLVFIYVTNPTAAHAITRAAYSQDVDVWTVDDNDTGTDTASAADGGDSQ", "protein production": "failed"}, {"sequence": "MTMDGDSSTTDASQLGISADYIGGSHYVIQPHDDTEDSMNDHEDTNGSKESFREQDIYLPIANVARIMKNAIPQTGKIAKDAKECVQECVSEFISFITSEASERCHQEKRKTINGEDILFAMSTLGFDSYVEPLKLYLQKFREAMKGEKGIGGAVSATDGLSEELTEEAFTNQLPAGLITADGQQQNVMVYTTSYQQISGVQQIQFS", "protein production": "failed"}, {"sequence": "MTMEPRVLRREEWDSWYGSLIRAFGGVPEPAEELELFRELTRVDRSIGVWERDGEAEACVGTTGSFDFRMTVPGGAQVRAAGVTMVSVAATHRRRGVLTSMMRRQLDDVRAWGEPLAVLTASEPAIYGRFGYGAATFSLSAEIDTSRVRLSVPAGTDDVRLRYAAPADVLDACEAVYARLVPGRPGMLARRPGWERLALLDPESGRDGASPLQCVVARRGGEVTGFARFRVRPAWGPEGAGGTVVLDDLAGLDPATEAALWRFLYDVDLTSRLAVRGRPVDEAWQYQVSDIRRCRPESRDALYVRLVDVGAALAARTYQAPVDVVFEVEDAFCPWNAGRWRLSGDAKGASCERTSDGADLALSVRELGAAYLGGVRLSSLGAAGRVREVRAGALAEASVGFGSDVAPWLPHGF", "protein production": "failed"}]}]}
